# Test results reported in patent publication US20250215071A1, “Novel Mcl-1 inhibitor and combination of Mcl-1 and a BH3 mimetic, such as a Bcl-2 inhibitor” (NETRIS PHARMA, priority 2022, published 2025).
# Test system: H322 cells
# Assay: Cleaved active caspase-3 immunostaining of resected H322 tumors
# Format: in vivo, NMRI nude mice
# Experimental: FIG. 3. COMMD2 is required for UNC5B-induced cell death and tumor suppression. (A): Silencing COMMD2 inhibits UNC5B-induced DNA fragmentation. Stable Hela cells inducible for UNC5B were transfected with two distinct siRNA scramble (siCTRL) or targeting COMMD2 (siCOMMD2-1 and -2). Upon treatment for 18 hours with the indicated concentrations of doxycycline (Dox), DNA fragmentation was evaluated through FACS analysis (n=3, **** p<0.0001, Ordinary two-way ANOVA). Values are given as means±SEM. (B, C, D): Tumor growth inhibition driven by netrin-1 interference necessitates UNC5B and COMMD2. NMRI nude mice were engrafted with stable H322 cells, knock-down for luciferase (sgLUC, used as a non-targeting control), UNC5B (sgUNC5B) or COMMD2 (sgCOMMD2), generated with CRISPR-Cas-9-KRAB strategy. Tumors obtained from nude mice engrafted with stable H322 cells were lysed and gene expression was evaluated by quantitative RT-PCR (n=2-3, *p<0.05, Kruskal-Wallis test with Dunn's multiple comparisons test) (B). After tumor volume reached 50 mm^3, mice were intravenously treated three time per week with anti-netrin-1 (NP137) or control (Iso-mAb) antibodies and tumor growth was evaluated (n=10 mice/group, ^nsp>0.05, *p<0.05, Mann-Whitney test, two-tailed) (C). A histogram illustrating tumor volumes at 35 days after first treatment is indicated in (D) (n=10 mice/group, ^nsp>0.05, *p<0.05, *** p<0.001, Kruskal-Wallis test with uncorrected Dunn's test). (E). Silencing of UNC5B and COMMD2 restrains in vivo NP137-induced apoptosis. After sacrificing the mice, tumors were resected and apoptosis was quantified by immunostaining of active cleaved caspase-3. […]
# 5-week-old female athymic NMRI nude mice were obtained from Janvier Labs (Saint Bertevin, France). […] Tumor size was measured three times per week with a caliper. Tumor volume was calculated according to the formula v=0.5× (l×w2), where v is volume, l is length, and w is width. […]
molecule,measurement,setting,value
"NP137: humanized anti-netrin-1 monoclonal antibody, VH SEQ ID NO: 22, VL SEQ ID NO: 16, human IgG1 (antibody, V domains shown, human IgG1 constant region; humanized variant; MISC_FEATURE - CDR according to IGMT) VH: QVQLQQSGPGLVKPSQTLSLTCAISGYTFTSYNMHWVRQATGQGLEWMGAIYPGNGDTSYNQKFKGRLTISKDTSKNQVVLTMTNMDPVDTATYYCARGGTGFAYWGQG VL: DIQMTQSPSSLSASVGDRVTITCKASQSVSNDVAWYQQKPGQAPRLLIYYASNRYTGIPPRFSGSGYGTDFTLTINNIESEDAAYYFCQQDYSSPWTFGQG",percentage of caspase-3 positive cells,H322 tumors knocked-out for COMMD2,failed to detect a similar increase
same,percentage of caspase-3 positive cells,H322 tumors knocked-out for UNC5B,failed to detect a similar increase
same,"apoptosis, cleaved active caspase-3 positive cells",control H322 tumors (sgLUC),associated with apoptosis induction
